For series [1], the system named is Saccharomyces cerevisiae. In words: protein stability index of tFT-peptide fusion (C-terminal peptide) (PSI (0-1 scale)); higher = more stable (slower turnover). The method, then:
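MPS profiling in S. cerevisiae of the tFT-X12 degron library: putative degron peptides plus stable controls, 12 aa, fused to the C-terminus of a sfGFP-mCherry timer. Cells are FACS-sorted into 8 mCherry/sfGFP bins and deep-sequenced. PSI runs from 0 (unstable) to 1 (stable). Backgrounds are wild type, das1Δ and doa10Δ at 30 °C, and wild type, das1Δ, cdc34-1 and cdc53-1 at 37 °C; 2-3 technical replicates each.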

For series [2], the system named is Saccharomyces cerevisiae. The description is as above. Particulars: genetic background: wild type; temperature: 30 C.
The mark [3] stands for this setting: genetic background: cdc34-1, temperature: 37 C.
[4] abbreviates: genetic background: cdc53-1, temperature: 37 C.
Where [5] appears, read: genetic background: das1 deletion, temperature: 30 C.
Where [6] appears, read: genetic background: das1 deletion, temperature: 37 C.
[7] abbreviates: genetic background: doa10 deletion, temperature: 30 C.
Where [8] appears, read: genetic background: wild type, temperature: 30 C.
The mark [9] stands for this setting: genetic background: wild type, temperature: 37 C.

± gives the standard deviation of the averaged measurements.
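Further: PSI is a weighted mean of sequencing reads over stability bins, variants kept only with over 10 reads, mCherry proximal and sfGFP distal, peptide attached via GGGS linker.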

For GGLVVYVWGRWS, the protein stability index is 0.526 ± 0.017 in the series with Saccharomyces cerevisiae [1] (setting [3]); 0.592 ± 0.025 with Saccharomyces cerevisiae [1] (setting [4]); 0.383 ± 0.016 in the series with Saccharomyces cerevisiae [1] (setting [5]); 0.589 ± 0.009 in the series with Saccharomyces cerevisiae [1] (setting [6]); 0.356 ± 0.021 in the series with Saccharomyces cerevisiae [1] (setting [7]); 0.377 ± 0.015 in the series with Saccharomyces cerevisiae [1] (setting [8]). Further, the protein stability index in the series on Saccharomyces cerevisiae [1] (setting [9]) was 0.573 ± 0.023; with Saccharomyces cerevisiae [2], 0.457 ± 0.024.
Turning to GGLWRRLCLGVG, the protein stability index in the series on Saccharomyces cerevisiae [1] (setting [3]) was determined as 0.4 ± 0.021; with Saccharomyces cerevisiae [1] (setting [4]), 0.4633 ± 0.0012; in the series on Saccharomyces cerevisiae [1] (setting [5]), 0.388 ± 0.018; in the series on Saccharomyces cerevisiae [1] (setting [6]) it was 0.469 ± 0.011; with Saccharomyces cerevisiae [1] (setting [7]), 0.3 ± 0.0089; with Saccharomyces cerevisiae [1] (setting [8]), 0.311 ± 0.016. Also, the protein stability index came to 0.453 ± 0.016 with Saccharomyces cerevisiae [1] (setting [9]) and 0.329 ± 0.041 in the series on Saccharomyces cerevisiae [2].
Turning to GGVCVRMECWMG, the protein stability index is 0.57 ± 0.036 in the series with Saccharomyces cerevisiae [1] (setting [3]); 0.629 ± 0.018 in the series on Saccharomyces cerevisiae [1] (setting [4]); 0.486 ± 0.032 in the series with Saccharomyces cerevisiae [1] (setting [5]); 0.5789 ± 0.0015 in the series on Saccharomyces cerevisiae [1] (setting [6]); 0.485 ± 0.03 in the series with Saccharomyces cerevisiae [1] (setting [7]); 0.496 ± 0.034 in the series on Saccharomyces cerevisiae [1] (setting [8]). Besides, the protein stability index with Saccharomyces cerevisiae [1] (setting [9]) was found to be 0.5864 ± 0.0051; in the series with Saccharomyces cerevisiae [2] it was 0.496 ± 0.0059.
Regarding GGVVGRPWWYVG, the protein stability index with Saccharomyces cerevisiae [1] (setting [3]) is 0.694 ± 0.023; in the series with Saccharomyces cerevisiae [1] (setting [4]), 0.79439 ± 0.00012; with Saccharomyces cerevisiae [1] (setting [5]), 0.677 ± 0.014; in the series on Saccharomyces cerevisiae [1] (setting [6]), 0.795 ± 0.013; in the series on Saccharomyces cerevisiae [1] (setting [7]) it was 0.266 ± 0.015; with Saccharomyces cerevisiae [1] (setting [8]), 0.301 ± 0.015. Also, the values for the protein stability index in the series with Saccharomyces cerevisiae [1] (setting [9]) and in the series with Saccharomyces cerevisiae [2] were 0.605 ± 0.017 and 0.425 ± 0.031, respectively.
For GIFVRIVCIDVA, the protein stability index turned out to be 0.125 ± 0.0095 with Saccharomyces cerevisiae [1] (setting [3]); 0.183 ± 0.0066 in the series with Saccharomyces cerevisiae [1] (setting [4]); 0.178 ± 0.032 in the series with Saccharomyces cerevisiae [1] (setting [5]); 0.302 ± 0.007 in the series on Saccharomyces cerevisiae [1] (setting [6]); 0.143 ± 0.0085 in the series on Saccharomyces cerevisiae [1] (setting [7]); 0.165 ± 0.021 with Saccharomyces cerevisiae [1] (setting [8]). In addition, the protein stability index in the series on Saccharomyces cerevisiae [1] (setting [9]) turned out to be 0.2851 ± 0.0006; with Saccharomyces cerevisiae [2], 0.2651 ± 0.0024.
With GINYSNKKILVN, the protein stability index was 0.574 ± 0.016 in the series with Saccharomyces cerevisiae [1] (setting [3]); 0.6729 ± 0.0015 with Saccharomyces cerevisiae [1] (setting [4]); 0.493 ± 0.027 in the series with Saccharomyces cerevisiae [1] (setting [5]); 0.691 ± 0.026 in the series with Saccharomyces cerevisiae [1] (setting [6]); 0.278 ± 0.022 with Saccharomyces cerevisiae [1] (setting [7]); 0.273 ± 0.033 in the series on Saccharomyces cerevisiae [1] (setting [8]). For the same sequence, the protein stability index amounted to 0.57 ± 0.0072 in the series on Saccharomyces cerevisiae [1] (setting [9]) and 0.444 ± 0.059 in the series on Saccharomyces cerevisiae [2].
Regarding GLCSGTGARWLV, the protein stability index in the series with Saccharomyces cerevisiae [1] (setting [3]) is 0.703 ± 0.0096; in the series on Saccharomyces cerevisiae [1] (setting [4]) it was 0.7667 ± 0.0022; in the series with Saccharomyces cerevisiae [1] (setting [5]), 0.636 ± 0.027; with Saccharomyces cerevisiae [1] (setting [6]), 0.749 ± 0.018; in the series with Saccharomyces cerevisiae [1] (setting [7]), 0.52 ± 0.013; with Saccharomyces cerevisiae [1] (setting [8]) it was 0.516 ± 0.0084. Further, the protein stability index worked out at 0.701 ± 0.016 in the series on Saccharomyces cerevisiae [1] (setting [9]) and 0.559 ± 0.086 in the series on Saccharomyces cerevisiae [2].
For the sequence GLPRASPLPIPV, the protein stability index with Saccharomyces cerevisiae [1] (setting [3]) is 0.553 ± 0.032; in the series on Saccharomyces cerevisiae [1] (setting [4]), 0.591 ± 0.006; with Saccharomyces cerevisiae [1] (setting [5]) it was 0.447 ± 0.021; in the series on Saccharomyces cerevisiae [1] (setting [6]), 0.6021 ± 0.0017; with Saccharomyces cerevisiae [1] (setting [7]) it was 0.425 ± 0.01; in the series with Saccharomyces cerevisiae [1] (setting [8]), 0.443 ± 0.016. In addition, the protein stability index in the series on Saccharomyces cerevisiae [1] (setting [9]) was found to be 0.57 ± 0.0065; in the series with Saccharomyces cerevisiae [2] it was 0.517 ± 0.048.
GLRLRCPLLLSL: the protein stability index with Saccharomyces cerevisiae [1] (setting [3]) is 0.354 ± 0.018; in the series on Saccharomyces cerevisiae [1] (setting [4]), 0.341 ± 0.018; in the series on Saccharomyces cerevisiae [1] (setting [5]), 0.315 ± 0.049; in the series with Saccharomyces cerevisiae [1] (setting [6]), 0.47 ± 0.011; in the series with Saccharomyces cerevisiae [1] (setting [7]), 0.507 ± 0.023; with Saccharomyces cerevisiae [1] (setting [8]) it was 0.324 ± 0.013. Moreover, the results for the protein stability index with Saccharomyces cerevisiae [1] (setting [9]) and in the series with Saccharomyces cerevisiae [2] were 0.425 ± 0.0045 and 0.383 ± 0.028, respectively.
Consider GLSGFLLLIVLY, for which the protein stability index with Saccharomyces cerevisiae [1] (setting [3]) was 0.194 ± 0.027; in the series with Saccharomyces cerevisiae [1] (setting [4]) it was 0.256 ± 0.019; in the series with Saccharomyces cerevisiae [1] (setting [5]), 0.239 ± 0.02; with Saccharomyces cerevisiae [1] (setting [6]), 0.417 ± 0.049; in the series with Saccharomyces cerevisiae [1] (setting [7]), 0.252 ± 0.0089; in the series on Saccharomyces cerevisiae [1] (setting [8]), 0.228 ± 0.035. Further, the figures for the protein stability index in the series on Saccharomyces cerevisiae [1] (setting [9]) and in the series on Saccharomyces cerevisiae [2] were 0.35509 ± 0.00019 and 0.353 ± 0.026, respectively.
Consider GLWLCRGLVRAW, for which the protein stability index with Saccharomyces cerevisiae [1] (setting [3]) was found to be 0.349 ± 0.026; with Saccharomyces cerevisiae [1] (setting [4]), 0.382 ± 0.021; in the series with Saccharomyces cerevisiae [1] (setting [5]) it was 0.299 ± 0.021; with Saccharomyces cerevisiae [1] (setting [6]) it was 0.46 ± 0.009; in the series on Saccharomyces cerevisiae [1] (setting [7]) it was 0.253 ± 0.001; in the series on Saccharomyces cerevisiae [1] (setting [8]), 0.289 ± 0.021. In addition, the protein stability index with Saccharomyces cerevisiae [1] (setting [9]) is 0.438 ± 0.014; in the series on Saccharomyces cerevisiae [2], 0.43 ± 0.04.
In the case of GPFGVGALVCCM, the protein stability index is 0.462 ± 0.016 in the series with Saccharomyces cerevisiae [1] (setting [3]); 0.4425 ± 0.00085 in the series on Saccharomyces cerevisiae [1] (setting [4]); 0.333 ± 0.032 in the series on Saccharomyces cerevisiae [1] (setting [5]); 0.503 ± 0.0066 in the series with Saccharomyces cerevisiae [1] (setting [6]); 0.304 ± 0.01 with Saccharomyces cerevisiae [1] (setting [7]); 0.351 ± 0.017 in the series with Saccharomyces cerevisiae [1] (setting [8]). In addition, the protein stability index with Saccharomyces cerevisiae [1] (setting [9]) is 0.4844 ± 0.00066; with Saccharomyces cerevisiae [2], 0.433 ± 0.0072.
On to GPNWCSVCQGVG, for which the protein stability index in the series on Saccharomyces cerevisiae [1] (setting [3]) was found to be 0.421 ± 0.03; in the series on Saccharomyces cerevisiae [1] (setting [4]) it was 0.477 ± 0.028; in the series with Saccharomyces cerevisiae [1] (setting [5]), 0.43 ± 0.011; in the series with Saccharomyces cerevisiae [1] (setting [6]), 0.4926 ± 0.0034; in the series with Saccharomyces cerevisiae [1] (setting [7]), 0.446 ± 0.0064; in the series with Saccharomyces cerevisiae [1] (setting [8]), 0.426 ± 0.013. Besides, the protein stability index amounted to 0.4733 ± 0.00063 with Saccharomyces cerevisiae [1] (setting [9]) and 0.453 ± 0.015 with Saccharomyces cerevisiae [2].
For the sequence GPPPAPSPTPSP, the protein stability index was determined as 0.661 ± 0.035 in the series on Saccharomyces cerevisiae [1] (setting [3]); 0.7253 ± 0.0049 in the series with Saccharomyces cerevisiae [1] (setting [4]); 0.676 ± 0.021 in the series on Saccharomyces cerevisiae [1] (setting [5]); 0.7217 ± 0.0055 with Saccharomyces cerevisiae [1] (setting [6]); 0.685 ± 0.014 in the series on Saccharomyces cerevisiae [1] (setting [7]); 0.687 ± 0.015 in the series with Saccharomyces cerevisiae [1] (setting [8]). Moreover, the figures for the protein stability index with Saccharomyces cerevisiae [1] (setting [9]) and in the series on Saccharomyces cerevisiae [2] were 0.699 ± 0.02 and 0.732 ± 0.023, respectively.
Take GPTLLVSRIAVI: the protein stability index with Saccharomyces cerevisiae [1] (setting [3]) turned out to be 0.506 ± 0.026; in the series with Saccharomyces cerevisiae [1] (setting [4]), 0.517 ± 0.024; in the series on Saccharomyces cerevisiae [1] (setting [5]), 0.368 ± 0.039; in the series on Saccharomyces cerevisiae [1] (setting [6]), 0.565 ± 0.011; in the series with Saccharomyces cerevisiae [1] (setting [7]) it was 0.137 ± 0.0051; in the series on Saccharomyces cerevisiae [1] (setting [8]), 0.162 ± 0.021. The values for the protein stability index with Saccharomyces cerevisiae [1] (setting [9]) and in the series with Saccharomyces cerevisiae [2] were 0.291 ± 0.015 and 0.249 ± 0.011, respectively.
As to GQLIYQHIFILG, the protein stability index with Saccharomyces cerevisiae [1] (setting [3]) was found to be 0.662 ± 0.063; in the series on Saccharomyces cerevisiae [1] (setting [4]), 0.6481 ± 0.0016; in the series on Saccharomyces cerevisiae [1] (setting [5]), 0.47 ± 0.011; with Saccharomyces cerevisiae [1] (setting [6]) it was 0.676 ± 0.025; in the series with Saccharomyces cerevisiae [1] (setting [7]), 0.312 ± 0.021; with Saccharomyces cerevisiae [1] (setting [8]), 0.353 ± 0.021. Moreover, the protein stability index with Saccharomyces cerevisiae [1] (setting [9]) was 0.5677 ± 0.0052; in the series on Saccharomyces cerevisiae [2], 0.4678 ± 0.00024.
